1 protein from publication PMC4157730 (Journal of molecular biology, 2012) can be followed below.

As a reminder, the stoichiometry N is a count of units in the complex or per binding partner.

The data set “AUC” concerns the molecule itself. The data set is described as follows: AUC.
Data set [1] concerns the molecule itself. Nature of the data set: negative staining transmission electron microscopy.

B1: human apolipoprotein (apo) C-II (natural protein, UniProt P02655 23-101, looked up)
chain: TQQPQQDEMPSPTFLTQVKESLSSYWESAKTAAQNLYEKTYLPAVDEKLRDLYSKSTAAMSTYTGIFTDQVLSVLKGEE
The protein B1 gave a Ka in “AUC” of 3.27e+11 M⁻¹. Also, the “stoichiometry N” value in data set [1] is roughly 621 subunits.
